Data reported in publication PMC3795524.

What was measured:
[1] = biological target: KNH1144 SOSIP.IEGR G-MPER gp140 (uncleaved) (HIV-1 KNH1144 (subtype A)); experiment: native gel or EMSA
[2] = biological target: KNH1144 SOSIP.IEGR G-MPER gp140 (uncleaved) (HIV-1 KNH1144 (subtype A)); experiment: AUC
[3] = biological target: KNH1144 SOSIP.R6 G-MPER gp140 (cleaved) (HIV-1 KNH1144 (subtype A)); experiment: native gel or EMSA
[4] = biological target: KNH1144 SOSIP.R6 G-MPER gp140 (cleaved) (HIV-1 KNH1144 (subtype A)); experiment: AUC

Q: For “KNH1144 SOSIP.IEGR G-MPER gp140 (uncleaved) (domain or fragment)”, which stoichiometry N [1] is on record?
A: 3

Q: What about the stoichiometry N [2] of the same substance?
A: 3

Q: With “KNH1144 SOSIP.R6 G-MPER gp140 (cleaved) (complex)” as the substance, how does the stoichiometry N [3] read?
A: 3

Q: What about the stoichiometry N [4] of the same substance?
A: 3
